Source: publication PMC9166766

Molecular target: GAL4 DBD-tagged VIVIT PPTP chimeric peptide
Assay: two-hybrid; mammalian two-hybrid in HEK293T cells: GAL4 DBD-tagged peptides, VP16 activation domain-tagged CNAβ2 and pG5-luc cotransfected for 24 h, luciferase read-out; Fig. 4b with or without 1 μM ionomycin

Which fold change of the two-hybrid signal against L-1-2 WT does the source give for VP16 activation domain-tagged CNAβ2 here?
Its fold change of the two-hybrid signal against L-1-2 WT is 1.93 fold.

And the fold change of the two-hybrid signal against VIVIT 10-mer?
Its fold change of the two-hybrid signal against VIVIT 10-mer is 4.76 fold.
